According to patent publication US20210380703A1 (RIGEL PHARMACEUTICALS, published 2021):

Legend:
[1] = biological target: T1, biotinylated goat anti-human kappa light chain; test: ELISA, positive control
T1 construct: Positive control of the ELISA
Outline: (§1)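 Binding signal was read by ELISA after ACVR2A-specific monoclonal antibodies were tested against human ACVR2A and mouse ACVR2A, with human Fc as the negative control.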

mouse ACVR2A = mouse ACVR2A (mouse, UniProt P27038 20-135, limits assumed); test: ELISA
Chain of mouse ACVR2A (P27038 20-135 limits assumed): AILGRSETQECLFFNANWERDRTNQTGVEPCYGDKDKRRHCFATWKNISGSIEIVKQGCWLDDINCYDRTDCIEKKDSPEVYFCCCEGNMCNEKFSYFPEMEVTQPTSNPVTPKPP
Outline: as §1

human ACVR2A = biological target: T2, human ACVR2A (human, UniProt P27037 20-135, limits assumed); test: ELISA
T2 construct: also called activin receptor, type II A
T2 sequence (P27037 20-135 limits assumed): as the sequence (P27038 20-135 limits assumed) above, with R20K, I73V counted along it
Outline: as §1
Also: test concentration or dose not given here.

Binder | optical density [1] | optical density (mouse ACVR2A) | optical density (human ACVR2A)
366_E02 (antibody, V domains shown, VH and VL only) VH: EVQLLESGGGLVQPGGSLRLSCAASGFTFSSYSMNWVRQAPGKGLEWVSGINYNSGYKGYADSVKGRFTISRDNSKNTLYLQMNSLRAEDTAVYYCARSATWHDTHLDYWGQGTLVTVSS VL: not shown | 3.46 OD | 2.58 OD | 2.26 OD
367_A11 (antibody, V domains shown, VH and VL only) VH: EVQLLESGGGLVQPGGSLRLSCAASGFTFSSYGMHWVRQAPGKGLEWVSGINYNGGYTSYADSVKGRFTISRDNSKNTLYLQMNSLRAEDTAVYYCARSATWHDTHLDYWGQGTLVTVSS VL: DIQMTQSPSSLSASVGDRVTITCRASQSILSYVNWYQQKPGKAPKLVIYATTSLASGVPSRFSGSGSGTDFTLTISSLQPEDFATYYCQQSYNSPLTFGGGTKVEIK | 3.61 OD | 2.52 OD | 2.34 OD
367_D02 (antibody, V domains shown, VH and VL only) VH: EVQLLESGGGLVQPGGSLRLSCAASGFTFDDYSMNWVRQAPGKGLEWVSNINYNGGYTSYADSVKGRFTISRDNSKNTLYLQMNSLRAEDTAVYYCARSATWHDTHLDYWGQGTLVTVSS VL: DIQMTQSPSSLSASVGDRVTITCRASQSIVTYVNWYQQKPGKAPKLLIYAATSRASGVPSRFSGSGSGTDFTLTISSLQPEDFATYYCQQSYENPLTFGGGTKVEIK | 3.46 OD | 2.46 OD | 2.46 OD
366_E03 (antibody, V domains shown, VH and VL only) VH: EVQLLESGGGLVQPGGSLRLSCAASGFTFDSYGMNWVRQAPGKGLEWVSNINYNGGYKSYADSVKGRFTISRDNSKNTLYLQMNSLRAEDTAVYYCARSATWHDTHLDYWGQGTLVTVSS VL: DIQMTQSPSSLSASVGDRVTITCRASQSILTYLNWYQQKPGKAPKLVIYAATSRHSGVPSRFSGSGSGTDFTLTISSLQPEDFATYYCQQSYSNPLTFGGGTKVEIK | 3.54 OD | 2.72 OD | 2.55 OD
367_H04 (antibody, V domains shown, VH and VL only) VH: EVQLLESGGGLVQPGGSLRLSCAASGFTFSSYSMNWVRQAPGKGLEWVSSINYNGGYTSYADSVKGRFTISRDNSKNTLYLQMNSLRAEDTAVYYCARSATWHDTHLDYWGQGTLVTVSS VL: DIQMTQSPSSLSASVGDRVTITCRASQSILTYVNWYQQKPGKAPKLLIYAATSRHSGVPSRFSGSGSGTDFTLTISSLQPEDFATYYCQQSDNNPLTFGGGTKVEIK | 3.4 OD | 1.85 OD | 1.62 OD
368_B05 (antibody, V domains shown, VH and VL only) VH: EVQLLESGGGLVQPGGSLRLSCAASGFTFDSYSMNWVRQAPGKGLEWVSSINYNSGYTGYADSVKGRFTISRDNSKNTLYLQMNSLRAEDTAVYYCARSATWHDTHLDYWGQGTLVTVSS VL: not shown | 3.26 OD | 1.75 OD | 1.73 OD
368_G07 (antibody, V domains shown, VH and VL only) VH: EVQLLESGGGLVQPGGSLRLSCAASGFTFSSYSMHWVRQAPGKGLEWVSSINYNGGYTSYADSVKGRFTISRDNSKNTLYLQMNSLRAEDTAVYYCARSATWHDTHLDYWGQGTLVTVSS VL: DIQMTQSPSSLSASVGDRVTITCRASQSIVSYVNWYQQKPGKAPKLVIYAATSRASGVPSRFSGSGSGTDFTLTISSLQPEDFATYYCQQSYDTPLTFGGGTKVEIK | 3.16 OD | 2.05 OD | 1.79 OD
367_F12 (antibody, V domains shown, VH and VL only) VH: EVQLLESGGGLVQPGGSLRLSCAASGFTFDDYSMNWVRQAPGKGLEWVSNINYNSGYKGYADSVKGRFTISRDNSKNTLYLQMNSLRAEDTAVYYCARSATWHDTHLDYWGQGTLVTVSS VL: not shown | 3.6 OD | 2.29 OD | 2.38 OD
366_F06 (antibody, V domains shown, VH and VL only) VH: EVQLLESGGGLVQPGGSLRLSCAASGFTFSDYGMNWVRQAPGKGLEWVSSINYNGGYTSYADSVKGRFTISRDNSKNTLYLQMNSLRAEDTAVYYCARSATWHDTHLDYWGQGTLVTVSS VL: DIQMTQSPSSLSASVGDRVTITCRASQSISTYLNWYQQKPGKAPKLLIYAATSLASGVPSRFSGSGSGTDFTLTISSLQPEDFATYYCQQSYSNPLTFGGGTKVEIK | 3.44 OD | 2.15 OD | 1.87 OD
367_G08 (antibody, V domains shown, VH and VL only) VH: EVQLLESGGGLVQPGGSLRLSCAASGFTFDSYGMNWVRQAPGKGLEWVSNINYNGGYKGYADSVKGRFTISRDNSKNTLYLQMNSLRAEDTAVYYCARSATWHDTHLDYWGQGTLVTVSS VL: DIQMTQSPSSLSASVGDRVTITCRASQSILSYLNWYQQKPGKAPKLLIYAATSRASGVPSRFSGSGSGTDFTLTISSLQPEDFATYYCQQSYENPLTFGGGTKVEIK | 3.32 OD | 2.78 OD | 2.69 OD

The next lines start with the values.

optical density [1] | optical density (mouse ACVR2A) | optical density (human ACVR2A) | Binder
3.29 OD | 1.75 OD | 1.6 OD | 368_G08 (antibody, V domains shown, VH and VL only) VH: EVQLLESGGGLVQPGGSLRLSCAASGFTFDDYGMNWVRQAPGKGLEWVSSINYNSGYKSYADSVKGRFTISRDNSKNTLYLQMNSLRAEDTAVYYCARSATWHDTHLDYWGQGTLVTVSS VL: DIQMTQSPSSLSASVGDRVTITCRASQSIVSYVNWYQQKPGKAPKLLIYAATSRHSGVPSRFSGSGSGTDFTLTISSLQPEDFATYYCQQSYNNPLTFGGGTKVEIK
3.55 OD | 3.66 OD | 3.6 OD | 369_A01 (antibody, V domains shown, VH and VL only) VH: EVQLLESGGGLVQPGGSLRLSCAASGFTFDSYSMNWVRQAPGKGLEWVSGINYNSGYKGYADSVKGRFTISRDNSKNTLYLQMNSLRAEDTAVYYCARSATWHDTHLDYWGQGTLVTVSS VL: DIQMTQSPSSLSASVGDRVTITCRASQSILTYVNWYQQKPGKAPKLVIYAATSLASGVPSRFSGSGSGTDFTLTISSLQPEDFATYYCQQSYELPLTFGGGTKVEIK
2.8 OD | 2.33 OD | 2.32 OD | 369_C08 (antibody, V domains shown, VH and VL only) VH: EVQLLESGGGLVQPGGSLRLSCAASGFTFSDYGMNWVRQAPGKGLEWVSNINYNGGYTGYADSVKGRFTISRDNSKNTLYLQMNSLRAEDTAVYYCARSATWHDTHLDYWGQGTLVTVSS VL: DIQMTQSPSSLSASVGDRVTITCRASQSILTYLNWYQQKPGKAPKLVIYAATSLASGVPSRFSGSGSGTDFTLTISSLQPEDFATYYCQQSYENPLTFGGGTKVEIK
3.11 OD | 3.35 OD | 3.44 OD | 369_D06 (antibody, V domains shown, VH and VL only) VH: EVQLLESGGGLVQPGGSLRLSCAASGFTFDSYSMNWVRQAPGKGLEWVSGINYNGGYTGYADSVKGRFTISRDNSKNTLYLQMNSLRAEDTAVYYCARSATWHDTHLDYWGQGTLVTVSS VL: DIQMTQSPSSLSASVGDRVTITCRASQSILTYLNWYQQKPGKAPKLLIYAATSRASGVPSRFSGSGSGTDFTLTISSLQPEDFATYYCQQSYETPLTFGGGTKVEIK
3.6 OD | 3.27 OD | 3.36 OD | 369_G09 (antibody, V domains shown, VH and VL only) VH: EVQLLESGGGLVQPGGSLRLSCAASGFTFDSYSMNWVRQAPGKGLEWVSNINYNGGYTGYADSVKGRFTISRDNSKNTLYLQMNSLRAEDTAVYYCARSATWHDTHLDYWGQGTLVTVSS VL: DIQMTQSPSSLSASVGDRVTITCRASQSIVTYLNWYQQKPGKAPKLLIYAATSRASGVPSRFSGSGSGTDFTLTISSLQPEDFATYYCQQSYDLPLTFGGGTKVEIK
3.32 OD | 3.01 OD | 2.89 OD | 369_A06 (antibody, V domains shown, VH and VL only) VH: EVQLLESGGGLVQPGGSLRLSCAASGFTFSDYGMNWVRQAPGKGLEWVSNINYNGGYTGYADSVKGRFTISRDNSKNTLYLQMNSLRAEDTAVYYCARSATWHDTHLDYWGQGTLVTVSS VL: DIQMTQSPSSLSASVGDRVTITCRASQSILSYVNWYQQKPGKAPKLLIYAATSLASGVPSRFSGSGSGTDFTLTISSLQPEDFATYYCQQSYDLPLTFGGGTKVEIK
3.52 OD | 3.3 OD | 2.88 OD | 369_E04 (antibody, V domains shown, VH and VL only) VH: EVQLLESGGGLVQPGGSLRLSCAASGFTFSDYSMNWVRQAPGKGLEWVSGINYNSGYKSYADSVKGRFTISRDNSKNTLYLQMNSLRAEDTAVYYCARSATWHDTHLDYWGQGTLVTVSS VL: DIQMTQSPSSLSASVGDRVTITCRASQSILSYVNWYQQKPGKAPKLVIYAATSRASGVPSRFSGSGSGTDFTLTISSLQPEDFATYYCQQSYSLPLTFGGGTKVEIK
3.48 OD | 3.77 OD | 3.63 OD | 369_E09 (antibody, V domains shown, VH and VL only) VH: EVQLLESGGGLVQPGGSLRLSCAASGFTFDSYSMNWVRQAPGKGLEWVSNINYNSGYKGYADSVKGRFTISRDNSKNTLYLQMNSLRAEDTAVYYCARSATWHDTHLDYWGQGTLVTVSS VL: DIQMTQSPSSLSASVGDRVTITCRASQSILSYLNWYQQKPGKAPKLVIYAATSRASGVPSRFSGSGSGTDFTLTISSLQPEDFATYYCQQSYDLPLTFGGGTKVEIK
2.21 OD | 1.64 OD | 1.45 OD | 369_H11 (antibody, V domains shown, VH and VL only) VH: EVQLLESGGGLVQPGGSLRLSCAASGFTFSDYGMNWVRQAPGKGLEWVSSINYNGGYTGYADSVKGRFTISRDNSKNTLYLQMNSLRAEDTAVYYCARSATWHDTHLDYWGQGTLVTVSS VL: DIQMTQSPSSLSASVGDRVTITCRASQSILSYLNWYQQKPGKAPKLLIYAATSRHSGVPSRFSGSGSGTDFTLTISSLQPEDFATYYCQQSYDLPLTFGGGTKVEIK
3.46 OD | 2.17 OD | 1.95 OD | 369_F04 (antibody, V domains shown, VH and VL only) VH: EVQLLESGGGLVQPGGSLRLSCAASGFTFSSYGMNWVRQAPGKGLEWVSGINYNGGYTSYADSVKGRFTISRDNSKNTLYLQMNSLRAEDTAVYYCARSATWHDTHLDYWGQGTLVTVSS VL: DIQMTQSPSSLSASVGDRVTITCRASQSIISYVNWYQQKPGKAPKLLIYAATSRHSGVPSRFSGSGSGTDFTLTISSLQPEDFATYYCQQSYDNPLTFGGGTKVEIK
